Key:
[1] = molecular target: KG1 cells surface antigen (6B protein binding surface antigen, unidentified); assay: flow cytometry on KG1 cells, sandwich with anti-c-myc-FITC
[2] = molecular target: HL60 cells surface antigens; assay: flow cytometry on HL60 cells, sandwich with anti-c-myc-FITC

B1: 6B antibody in an scFv format (Clone 6B) (scFv, not shown: small tags and cut ends)
scFv: EVQLLESGGGLVQPGGSLRLSCAASGFTFSSYGMSWVRQAPGKGLEWVSTIRTAGRATEYADSVKGRFTISRDNSKNTLYLQMNSLRAEDTAVYYCAKSPQTFDYWGQGTLVTVSSGGGGSGGGGSGGGGSTDIQMTQSPSSLSASVGDRVTITCRASQSISSYLNWYQQKPGKAPKLLIYRASRLQSGVPSRFSGSGSGTDFTLTISSLQPEDFATYYCQQRLTIPITFGQGTKVEIKRAAA
[1]
  FITC+: % Vis: 100%
  FITC+: GeoMean: 28.1
  FITC+: mean: 29.4
  FITC+: median: 28.4
[2]
  FITC+: % Vis: 4.5%
  FITC+: GeoMean: 9.8
  FITC+: mean: 10.7
  FITC+: median: 8.9
